Assay results from patent US20150344570A1 (published 2015).
Where a chain is given by its changes, count along the chain named. Numbers in names are those of the source.

T1: FcgRIIa H type extracellular domain, C-terminal His tag (human, UniProt P12318 34-217)
T1 construct: extracellular domain; Soluble analyte in Biacore; also called FcγRIIa H; FcγRIIa(H); not shown: His tag at the C terminus
T1 sequence (looked up): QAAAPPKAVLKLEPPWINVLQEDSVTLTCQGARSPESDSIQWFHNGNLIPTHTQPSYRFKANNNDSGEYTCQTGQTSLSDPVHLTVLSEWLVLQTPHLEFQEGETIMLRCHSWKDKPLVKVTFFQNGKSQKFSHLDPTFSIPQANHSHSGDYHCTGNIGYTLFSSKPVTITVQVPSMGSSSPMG

T2: FcgRIIa R type extracellular domain, C-terminal His tag (human, UniProt P12318 34-217)
T2 construct: extracellular domain; Soluble analyte in Biacore; also called FcγRIIa R; FcγRIIa(R); not shown: His tag at the C terminus
T2 sequence (looked up): T1 sequence (looked up) with H134R

T3: FcgRIIb extracellular domain, C-terminal His tag (human, UniProt P31994 43-217)
T3 construct: extracellular domain; Soluble analyte in Biacore; also called FcγRIIb; not shown: His tag at the C terminus
T3 sequence (looked up): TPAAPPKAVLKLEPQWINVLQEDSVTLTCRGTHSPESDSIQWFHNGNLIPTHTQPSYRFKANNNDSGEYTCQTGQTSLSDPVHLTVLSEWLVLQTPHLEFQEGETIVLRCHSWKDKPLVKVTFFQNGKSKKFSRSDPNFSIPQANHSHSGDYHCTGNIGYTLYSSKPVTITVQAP

T4: FcγRIIa R extracellular domain with C-terminal His tag (human, UniProt P12318 34-217)
T4 construct: extracellular domain; Soluble receptor, R131 allotype; also called FcgRIIa R; FcgRIIaR; not shown: His tag at the C terminus
T4 sequence (looked up): T1 sequence (looked up) with H134R

T5: FcγRIIa H extracellular domain with C-terminal His tag (human, UniProt P12318 34-217)
T5 construct: extracellular domain; Soluble receptor, H131 allotype; also called FcgRIIa H; FcgRIIaH; not shown: His tag at the C terminus
T5 sequence (looked up): T1 sequence (looked up)

T6: FcγRIIb extracellular domain with C-terminal His tag (human, UniProt P31994 43-217)
T6 construct: extracellular domain; also called FcgRIIb; CD32B; not shown: His tag at the C terminus
T6 sequence (looked up): T3 sequence (looked up)

B1: H240-Kn120/H240-Hl068/L73-k0 (antibody, human IgG1, kappa)
heavy 1: QDQLVQSGAEVKKPGASVKVSCKASGFNIKDTYIQWVRQAPGQGLEWMGRIDPLRKQTKYREKFEGRVTITADTSTNTAYMELSSLRSEDTAVYYCVRSGREFDYWGQGTLVTVSSASTKGPSVFPLAPSSKSTSGGTAALGCLVKDYFPEPVTVSWNSGALTSGVHTFPAVLQSSGLYSLSSVVTVPSSSLGTQTYICNVNHKPSNTKVDKKVEPKSCDKTHTCPPCPAPEYYWGPMVFLFPPKPKDTLMISRTPEVTCVVVDVSDEDPEVKFNWYVDGVEVHNAKTKPREEQYNATYRVVSVLTVLHQDWLNGKEYKCKVSNKDLPAPIEKTISKAKGQPREPQVCTLPPSRDELTKNQVSLWCLVKGFYPSDIAVEWESNGQPENNYKTTPPVLDSDGSFFLYSKLTVDKSRWQQGNVFSCSVMHEALHNHYTQKSLSLSP
heavy 2: QDQLVQSGAEVKKPGASVKVSCKASGFNIKDTYIQWVRQAPGQGLEWMGRIDPLRKQTKYREKFEGRVTITADTSTNTAYMELSSLRSEDTAVYYCVRSGREFDYWGQGTLVTVSSASTKGPSVFPLAPSSKSTSGGTAALGCLVKDYFPEPVTVSWNSGALTSGVHTFPAVLQSSGLYSLSSVVTVPSSSLGTQTYICNVNHKPSNTKVDKKVEPKSCDKTHTCPPCPAPELLGGPSVFLFPPKPKDTLMISRTPEVTCVVVDVSHEEPEVKFNWYVDGVEVHNAKTKPREEQYNSTYRVVSVLTVLHQDWLNGKEYKCKVSNDALPKPIEETISKAKGQPREPQVYTLPPSRCELTKNQVSLSCAVKGFYPSDIAVEWESNGQPENNYKTTPPVLDSDGSFFLVSKLTVDKSRWQQGNVFSCSVMHEALHNHYTQKSLSLSP
light: DIQMTQSPSSLSASVGDRVTITCRASQDIHKYIAWYQQKPGQAPRLLIQYTSTLQPGVPSRFSGSGSGTDYTFTISSLQPEDIATYYCLQYEQLRTFGGGTKVEIKRTVAAPSVFIFPPSDEQLKSGTASVVCLLNNFYPREAKVQWKVDNALQSGNSQESVTEQDSKDSTYSLSSTLTLSKADYEKHKVYACEVTHQGLSSPVTKSFNRGEC
notes: Heterodimerized (knobs-into-holes) anti-epiregulin IgG1 antibody; also called H240-Kn120/H240-HI068/L73-k0
B2: H240-Kn120/H240-Hl086/L73-k0 (antibody, human IgG1, kappa)
heavy 1: B1 heavy 1
heavy 2: B1 heavy 2 with G235I
light: B1 light
notes: also called H240-Kn120/H240-HI086/L73-k0
B3: H240-Kn120/H240-Hl085/L73-k0 (antibody, human IgG1, kappa)
heavy 1: B1 heavy 1
heavy 2: B1 heavy 2 with G235V
light: B1 light
notes: also called H240-Kn120/H240-HI085/L73-k0
B4: H240-Kn120/H240-Hl073/L73-k0 (antibody, human IgG1, kappa)
heavy 1: B1 heavy 1
heavy 2: B1 heavy 2 with G235S
light: B1 light
notes: also called H240-Kn120/H240-HI073/L73-k0
B5: H240-Kn120/H240-Hl089/L73-k0 (antibody, human IgG1, kappa)
heavy 1: B1 heavy 1
heavy 2: B1 heavy 2 with G235T
light: B1 light
notes: also called H240-Kn120/H240-HI089/L73-k0
B6: H240-Kn061/H240-Hl071/L73-k0 variant with V240F introduced into H chain H240-Hl071 (antibody, human IgG1, kappa)
heavy 1: B1 heavy 1 with M238S, D326A
heavy 2: B1 heavy 2 with V239F, E269D, K329M
light: B1 light
notes: Point variant of the heterodimerized anti-epiregulin IgG1 template; also called H240-Hl071 V240F
B7: H240-Kn061/H240-Hl071/L73-k0 variant with Y235N introduced into H chain H240-Kn061 (antibody, human IgG1, kappa)
heavy 1: B1 heavy 1 with Y234N, M238S, D326A
heavy 2: B1 heavy 2 with E269D, K329M
light: B1 light
notes: Point variant of the heterodimerized anti-epiregulin IgG1 template; also called H240-Kn061 Y235N
B8: H240-Kn061/H240-Hl071/L73-k0 variant with Y234E introduced into H chain H240-Kn061 (antibody, human IgG1, kappa)
heavy 1: B1 heavy 1 with Y233E, M238S, D326A
heavy 2: B1 heavy 2 with E269D, K329M
light: B1 light
notes: Point variant of the heterodimerized anti-epiregulin IgG1 template; also called H240-Kn061 Y234E

biological target: T7, FcgRIIIa V type extracellular domain, C-terminal His tag (human, UniProt P08637 17-208); assay: SPR (Biacore); KD of H240-Kn120/H240-Hl068/L73-k0 divided by KD of the variant
T7 construct: extracellular domain; Soluble analyte in Biacore; also called FcγRIIIa V; not shown: His tag at the C terminus
Method: (§1) Analysis of interaction between objective antibody and the FcγR was carried out using Biacore T100 (GE Healthcare), Biacore T200, Biacore A100, and Biacore 4000. HBS-EP+ (GE Healthcare) was used as the running buffer, and the measurement temperature was set to 25° C. Chips produced by immobilizing the antigen peptide by the amine coupling method to a Series S sensor Chip CM5 (GE Healthcare), chips produced by allowing preliminarily biotinylated antigen peptides to interact with and immobilize onto a Series S Sensor Chip SA (certified) (GE Healthcare), chips produced by immobilizing Protein L (ACTIGEN, BioVision) to Series S Sencor Chip CM5 (GE Healthcare), or chips produced by immobilizing Protein A/G (Thermo Scientific) to Series S Sencor Chip CM5 (GE Healthcare) were used. Antibodies of interest were captured onto these chips, and allowed to interact to each FcγR diluted with running buffer. To regenerate and repeatedly use the chip, the antibodies captured onto the chip were washed off by reacting 10 mM glycine-HCl, pH 1.5.

T7 sequence (P08637 17-208 F176V): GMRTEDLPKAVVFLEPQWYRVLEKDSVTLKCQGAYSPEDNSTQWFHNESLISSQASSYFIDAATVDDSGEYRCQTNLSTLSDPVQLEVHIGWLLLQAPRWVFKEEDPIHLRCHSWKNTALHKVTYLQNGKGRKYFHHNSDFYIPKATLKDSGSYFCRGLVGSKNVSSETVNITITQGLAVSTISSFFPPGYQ

relative KD	Binder
1	B1
0	B2
0.1	B3
0.2	B4
0.1	B5

biological target: T1, FcgRIIa H type extracellular domain, …; assay: as above
Method: as §1

relative KD	Binder
1	B1
0.8	B2
0.9	B3
2	B4
1	B5

biological target: T2, FcgRIIa R type extracellular domain, …; assay: as above
Method: as §1

relative KD	Binder
1	B1
0.9	B2
1.1	B3
1.3	B4
1.4	B5

biological target: T8, FcgRIIIa F type extracellular domain, C-terminal His tag (human, UniProt P08637 17-208); assay: as above
T8 construct: extracellular domain; Soluble analyte in Biacore; also called FcγRIIIa F; not shown: His tag at the C terminus
Method: as §1

T8 sequence (P08637 17-208): as the sequence (P08637 17-208 F176V) above, with V160F counted along it

relative KD	Binder
1	B1
0.1	B2
0.1	B3
0.3	B4
0.2	B5

biological target: T3, FcgRIIb extracellular domain, …; assay: as above
Method: as §1

relative KD	Binder
1	B1
0.3	B2
0.4	B3
0.7	B4
0.8	B5

biological target: T4, FcγRIIa R extracellular domain with …; assay: SPR (Biacore); KD of H240-Kn061/H240-Hl071/L73-k0 divided by KD of the variant

relative KD	Binder
1.1	B6
1	B7
1.4	B8

biological target: T5, FcγRIIa H extracellular domain with …; assay: as above

relative KD	Binder
0.9	B6
0.7	B7
0.7	B8

biological target: T9, FcγRIIIa V extracellular domain with C-terminal His tag (human, UniProt P08637 17-208); assay: as above
T9 construct: extracellular domain; Soluble receptor, V158 allotype; also called FcgRIIIa V; FcgRIIIaV; not shown: His tag at the C terminus
T9 sequence (P08637 17-208 F176V): as the sequence (P08637 17-208 F176V) above

relative KD	Binder
1	B6
2	B7
1.6	B8

biological target: T6, FcγRIIb extracellular domain with …; assay: as above

relative KD	Binder
0.9	B6
0.7	B7
0.5	B8

biological target: T10, FcγRIIIa F extracellular domain with C-terminal His tag (human, UniProt P08637 17-208); assay: as above
T10 construct: extracellular domain; Soluble receptor, F158 allotype; also called FcgRIIIa F; FcgRIIIaF; not shown: His tag at the C terminus
T10 sequence (P08637 17-208): as the sequence (P08637 17-208 F176V) above, with V160F counted along it

relative KD	Binder
1.4	B6
1.3	B7
1.9	B8

biological target: T7, FcgRIIIa V type extracellular domain, …; assay: SPR (Biacore); KD of H240-Kn120/H240-Hl068/L73-k0 divided by KD of the variant; remark: another data set of the same source
Method: (§2) H240-Kn179/H240-H1089/L73-k0, H240-Kn180/H240-Hl089/L73-k0, H240-Kn192/H240-Hl204/L73-k0, and H240-Kn193/H240-Hl204/L73-k0 were prepared by combining each of H240-Kn192 and H240-Kn193 as an H chain, L73-k0 as the L chain, and H240-Hl089 and H240-Hl204 as the other H chain according to the method described in Reference Example 1. The variants described above were assessed for their binding to FcγR according to the method described in Reference Example 8.
as §1

relative KD	Binder
1	B1
0.1	B5

biological target: T1, FcgRIIa H type extracellular domain, …; assay: as above; remark: another data set of the same source
Method: as §2, §1

relative KD	Binder
1	B1
1	B5

biological target: T2, FcgRIIa R type extracellular domain, …; assay: as above; remark: another data set of the same source
Method: as §2, §1

relative KD	Binder
1	B1
1.4	B5

biological target: T8, FcgRIIIa F type extracellular domain, …; assay: as above; remark: another data set of the same source
Method: as §2, §1

relative KD	Binder
1	B1
0.2	B5

biological target: T3, FcgRIIb extracellular domain, …; assay: as above; remark: another data set of the same source
Method: as §2, §1

relative KD	Binder
1	B1
0.8	B5
